Experiments:
Details in all cases: both partners purified
[1] = molecular target: T1, Human wild-type copper chaperone for Sod1 (Ccs), His8-tag removed (human, UniProt O14618 1-274); experiment: other fluorescence titration; HI-FI method, fluorescence quenching; 10 nM Alexa-546 Sod1 probe, Zn-bound; apo-Ccs titrated in increasing concentrations; fit in GraphPad Prism
T1 construct: Human wild-type Ccs1, UniProtKB O14618, cloned into pAG8H; Stripped of metals (apo) or Cu(I)-loaded as the experiment says; the methods tell its removal in general; also called Ccs1; WT Ccs; not shown: His8, N-terminal, cleaved
T1 sequence (looked up): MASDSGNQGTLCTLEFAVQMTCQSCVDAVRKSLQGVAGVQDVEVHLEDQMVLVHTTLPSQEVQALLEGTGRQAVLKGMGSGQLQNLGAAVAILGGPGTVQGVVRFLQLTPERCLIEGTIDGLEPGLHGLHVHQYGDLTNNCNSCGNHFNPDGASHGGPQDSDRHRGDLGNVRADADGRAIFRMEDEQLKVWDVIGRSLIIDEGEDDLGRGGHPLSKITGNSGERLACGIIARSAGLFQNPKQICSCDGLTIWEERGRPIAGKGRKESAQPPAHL

[2] = molecular target: T2, Pre-made Cu(I)-Ctr1c·Ccs complex (human, UniProt O14618 1-274); experiment: other fluorescence titration; HI-FI method, fluorescence quenching; 10 nM Alexa-546 Sod1 probe, completely immature (metal-free); Ccs titrated in increasing concentrations; fit in GraphPad Prism
T2 construct: Human wild-type Ccs1, UniProtKB O14618; as m2; C-terminal 13 amino acids of the human Ctr1 Cu(I)-transporter (Ctr1c), UniProtKB O15431; Held together through Cu(I); also called Cu(I)-Ctr1c complexed Ccs; Cu(I)-Ctr1c488·Ccs; source: formed from purified E. coli Ccs and the Cu(I)-loaded synthetic peptide; not shown: His8, N-terminal, cleaved

[3] = molecular target: T1, Human wild-type copper chaperone for …; experiment: as above

Kd [1]: 22 ± 6 nM
Kd [2]: 120 ± 27 nM
Kd [3]: 89 ± 11 nM
B1: H46R/H48Q/C146S Sod1 labelled with Alexa-546-C-maleimide (Sod1 probe) (enzyme)
chain: not shown
modifications: Alexa-546-C-maleimide label (residue not stated)
notes: Human Sod1, UniProtKB P00441, H46R/H48Q/C146S; the two states are told apart by the assay; also called completely immature Sod1; source: gel filtration after labelling

Reference: article PMC6647829, “Copper–zinc superoxide dismutase (Sod1) activation terminates interaction between its copper chaperone (Ccs) and the cytosolic metal-binding domain of the copper importer Ctr1” (Biometals, 2019)
